Earlier results, collected in PMC6399403.
Read-outs that look alike come from different tables or passages of the source.

Key:
[1] = molecular target: CD155 (Homo sapiens) (UniProt P15151)
[2] = molecular target: CD155 (Homo sapiens) (UniProt P15151); remark: listed apart in the source

Chain of UniProt P15151 (P15151 21-343): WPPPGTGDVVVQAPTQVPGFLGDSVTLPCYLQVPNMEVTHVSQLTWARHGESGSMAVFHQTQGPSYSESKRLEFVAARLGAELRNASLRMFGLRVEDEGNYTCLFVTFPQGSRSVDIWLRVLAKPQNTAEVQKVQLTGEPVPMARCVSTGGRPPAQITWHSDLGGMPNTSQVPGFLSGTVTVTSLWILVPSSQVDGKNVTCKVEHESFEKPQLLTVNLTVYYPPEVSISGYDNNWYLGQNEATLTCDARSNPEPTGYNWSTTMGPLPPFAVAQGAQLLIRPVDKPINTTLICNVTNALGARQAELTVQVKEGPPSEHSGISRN

Substance | Kd [1] | Kd [2]
TIGIT (from UniProt Q495A1) | 1 nM | –
CD226 (from UniProt Q15762) | – | 100 nM
